In patent US20230250154A1 (CYTONICS, published 2023):
One block for each binder: values may come before it.

Key:
Assay in all cases: cell-based or functional assay
[1] = target: MMP13 (human, UniProt P45452 104-471, limits assumed)
[2] = target: T1, Cathepsin G (UniProt P08311 21-244)
T1 sequence (looked up): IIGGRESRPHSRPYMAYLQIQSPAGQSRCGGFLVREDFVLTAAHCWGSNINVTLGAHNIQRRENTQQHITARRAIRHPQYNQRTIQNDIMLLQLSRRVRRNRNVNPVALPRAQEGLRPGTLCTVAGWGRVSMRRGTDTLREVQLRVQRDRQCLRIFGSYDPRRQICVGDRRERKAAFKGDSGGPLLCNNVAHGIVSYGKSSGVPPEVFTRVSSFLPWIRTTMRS

[3] = target: T2, ADAMTS4 (human, UniProt O75173 213-685, limits assumed)
T2 sequence (looked up): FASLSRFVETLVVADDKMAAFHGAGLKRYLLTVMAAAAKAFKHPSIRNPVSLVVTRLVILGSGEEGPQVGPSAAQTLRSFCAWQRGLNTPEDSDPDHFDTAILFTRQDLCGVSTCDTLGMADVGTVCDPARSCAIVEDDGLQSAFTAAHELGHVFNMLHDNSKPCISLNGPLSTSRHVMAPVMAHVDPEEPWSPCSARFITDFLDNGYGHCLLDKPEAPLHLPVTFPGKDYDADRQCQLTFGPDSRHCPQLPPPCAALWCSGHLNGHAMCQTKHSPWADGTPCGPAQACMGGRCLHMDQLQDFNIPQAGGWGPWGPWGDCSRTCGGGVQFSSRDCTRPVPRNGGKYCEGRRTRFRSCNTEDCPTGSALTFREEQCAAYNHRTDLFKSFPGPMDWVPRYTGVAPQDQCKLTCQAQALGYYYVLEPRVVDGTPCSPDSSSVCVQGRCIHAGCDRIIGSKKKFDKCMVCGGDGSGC

[4] = target: T3, MMP2 (human, UniProt P08253 110-660, limits assumed)
T3 sequence (looked up): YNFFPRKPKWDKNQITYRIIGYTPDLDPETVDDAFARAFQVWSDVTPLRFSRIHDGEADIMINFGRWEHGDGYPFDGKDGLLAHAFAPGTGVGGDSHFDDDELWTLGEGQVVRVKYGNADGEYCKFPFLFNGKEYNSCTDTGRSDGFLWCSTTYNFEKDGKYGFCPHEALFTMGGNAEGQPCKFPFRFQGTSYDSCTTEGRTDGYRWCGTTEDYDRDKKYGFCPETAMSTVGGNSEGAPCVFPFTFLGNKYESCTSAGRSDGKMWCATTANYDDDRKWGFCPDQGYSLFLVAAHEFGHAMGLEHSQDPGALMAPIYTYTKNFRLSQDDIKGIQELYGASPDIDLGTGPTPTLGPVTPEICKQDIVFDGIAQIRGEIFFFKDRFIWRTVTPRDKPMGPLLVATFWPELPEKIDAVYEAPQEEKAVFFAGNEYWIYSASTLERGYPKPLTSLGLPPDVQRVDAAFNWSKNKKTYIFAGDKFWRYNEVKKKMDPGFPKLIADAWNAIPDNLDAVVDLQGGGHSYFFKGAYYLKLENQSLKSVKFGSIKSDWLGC

[5] = target: MMP8 (human, UniProt P22894 101-467, limits assumed)
MMP8, sequence (P22894 101-467 limits assumed): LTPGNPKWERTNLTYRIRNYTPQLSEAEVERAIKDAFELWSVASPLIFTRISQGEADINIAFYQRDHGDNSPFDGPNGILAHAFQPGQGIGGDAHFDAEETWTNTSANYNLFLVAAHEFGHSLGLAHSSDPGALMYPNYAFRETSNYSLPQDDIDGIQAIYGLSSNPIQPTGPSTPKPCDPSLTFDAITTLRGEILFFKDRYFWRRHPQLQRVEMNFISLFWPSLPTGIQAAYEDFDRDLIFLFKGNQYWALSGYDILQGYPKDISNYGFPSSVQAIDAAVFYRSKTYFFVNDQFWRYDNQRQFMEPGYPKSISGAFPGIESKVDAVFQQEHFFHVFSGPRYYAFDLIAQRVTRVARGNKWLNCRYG

[6] = target: T4, MMP1 (human, UniProt P03956 100-469, limits assumed)
T4 sequence (looked up): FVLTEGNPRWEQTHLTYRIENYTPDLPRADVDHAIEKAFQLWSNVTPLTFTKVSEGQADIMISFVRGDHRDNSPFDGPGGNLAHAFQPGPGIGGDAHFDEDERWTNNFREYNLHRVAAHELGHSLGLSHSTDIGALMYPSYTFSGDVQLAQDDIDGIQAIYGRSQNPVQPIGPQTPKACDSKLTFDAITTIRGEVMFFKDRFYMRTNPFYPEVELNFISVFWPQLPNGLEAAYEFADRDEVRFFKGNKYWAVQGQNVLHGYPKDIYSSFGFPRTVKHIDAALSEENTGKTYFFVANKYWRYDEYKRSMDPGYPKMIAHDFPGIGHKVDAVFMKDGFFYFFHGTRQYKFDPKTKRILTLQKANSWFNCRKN

[7] = target: MMP9 (human, UniProt P14780 107-707, limits assumed)
MMP9, sequence (P14780 107-707 limits assumed): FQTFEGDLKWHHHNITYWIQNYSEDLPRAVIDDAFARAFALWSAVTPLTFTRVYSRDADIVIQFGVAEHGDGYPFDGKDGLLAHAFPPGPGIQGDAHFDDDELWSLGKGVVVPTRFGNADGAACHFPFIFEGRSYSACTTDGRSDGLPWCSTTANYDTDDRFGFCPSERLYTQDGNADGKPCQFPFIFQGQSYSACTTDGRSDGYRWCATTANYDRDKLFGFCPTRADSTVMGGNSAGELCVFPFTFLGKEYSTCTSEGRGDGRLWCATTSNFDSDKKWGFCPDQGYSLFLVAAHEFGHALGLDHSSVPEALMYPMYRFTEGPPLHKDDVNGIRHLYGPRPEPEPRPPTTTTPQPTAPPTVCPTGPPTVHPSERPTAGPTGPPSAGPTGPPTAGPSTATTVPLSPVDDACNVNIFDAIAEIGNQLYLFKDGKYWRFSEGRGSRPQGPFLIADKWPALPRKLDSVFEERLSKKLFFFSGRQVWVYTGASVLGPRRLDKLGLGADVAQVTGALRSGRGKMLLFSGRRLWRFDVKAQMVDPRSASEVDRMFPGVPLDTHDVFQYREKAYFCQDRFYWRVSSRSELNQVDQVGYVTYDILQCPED

[8] = target: T5, ADAMTS5 (human, UniProt Q9UNA0 262-622, limits assumed)
T5 sequence (looked up): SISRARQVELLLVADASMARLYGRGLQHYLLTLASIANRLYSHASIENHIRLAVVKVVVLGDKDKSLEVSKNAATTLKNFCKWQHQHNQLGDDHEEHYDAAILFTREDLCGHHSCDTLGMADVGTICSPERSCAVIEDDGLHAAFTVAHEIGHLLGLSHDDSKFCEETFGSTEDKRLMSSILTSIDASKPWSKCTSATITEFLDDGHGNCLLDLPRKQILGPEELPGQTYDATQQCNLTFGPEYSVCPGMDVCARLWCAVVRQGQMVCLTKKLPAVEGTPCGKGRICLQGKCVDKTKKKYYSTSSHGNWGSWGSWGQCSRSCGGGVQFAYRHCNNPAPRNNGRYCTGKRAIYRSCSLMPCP

[9] = target: MMP3 (human, UniProt P08254 100-477, limits assumed)
MMP3, sequence (P08254 100-477 limits assumed): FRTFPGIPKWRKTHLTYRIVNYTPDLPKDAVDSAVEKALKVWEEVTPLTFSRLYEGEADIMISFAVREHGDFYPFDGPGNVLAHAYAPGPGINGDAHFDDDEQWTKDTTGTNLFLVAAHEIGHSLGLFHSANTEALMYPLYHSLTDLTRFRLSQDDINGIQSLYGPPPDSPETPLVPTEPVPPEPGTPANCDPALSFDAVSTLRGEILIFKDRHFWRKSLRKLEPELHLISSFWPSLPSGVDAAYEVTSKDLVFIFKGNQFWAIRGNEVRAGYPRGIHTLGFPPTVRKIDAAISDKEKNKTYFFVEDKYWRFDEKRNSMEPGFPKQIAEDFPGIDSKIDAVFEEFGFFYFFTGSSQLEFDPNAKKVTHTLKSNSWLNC

[10] = target: Elastase
[11] = target: T6, MMP7 (UniProt P09237 95-267, limits assumed)
T6 sequence (looked up): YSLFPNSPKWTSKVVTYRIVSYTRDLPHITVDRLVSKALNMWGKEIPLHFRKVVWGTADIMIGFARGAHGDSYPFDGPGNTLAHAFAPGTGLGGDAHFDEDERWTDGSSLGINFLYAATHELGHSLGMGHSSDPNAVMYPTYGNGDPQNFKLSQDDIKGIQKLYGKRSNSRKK

Protease Inhibition (% of WT) [1]: 66 % of WT
Protease Inhibition (% of WT) [2]: 99 % of WT
Protease Inhibition (% of WT) [3]: 236 % of WT
Protease Inhibition (% of WT) [4]: 10 % of WT
Protease Inhibition (% of WT) [5]: 39 % of WT
Protease Inhibition (% of WT) [6]: 60 % of WT
Protease Inhibition (% of WT) [7]: 14 % of WT
Protease Inhibition (% of WT) [8]: 105 % of WT
Protease Inhibition (% of WT) [9]: 169 % of WT
Protease Inhibition (% of WT) [10]: 67 % of WT
Protease Inhibition (% of WT) [11]: 61 % of WT
B1: Variant A2M, bait region SEQ ID NO 14 (other)
chain: SVSGKPQYMVLVPSLLHTETTEKGCVLLSYLNETVTVSASLESVRGNRSLFTDLEAENDVLHCVAFAVPKSSSNEEVMFLTVQVKGPTQEFKKRTTVMVKNEDSLVFVQTDKSIYKPGQTVKFRVVSMDENFHPLNELIPLVYIQDPKGNRIAQWQSFQLEGGLKQFSFPLSSEPFQGSYKVVVQKKSGGRTEHPFTVEEFVLPKFEVQVTVPKIITILEEEMNVSVCGLYTYGKPVPGHVTVSICRKYSDASDCHGEDSQAFCEKFSGQLNSHGCFYQQVKTKVFQLKRKEYEMKLHTEAQIQEEGTVVELTGRQSSEITRTITKLSFVKVDSHFRQGIPFFGQVRLVDGKGVPIPNKVIFIRGNEANYYSNATTDEHGLVQFSINTTNVMGTSLTVRVNYKDRSPCYGYQWVSEEHEEAHHTAYLVFSPSKSFVHLEPMSHELPCGHTQTVQAHYILNGGTLLGLKKLSFYYLIMAKGGIVRTGTHGLLVKQEDMKGHFSISIPVKSDIAPVARLLIYAVLPTGDVIGDSAKYDVENCLANKVDLSFSPSQSLPASHAHLRVTAAPQSVCALRAVDQSVLLMKPDAELSASSVYNLLPEKDLTGFPGPLNDQDDEDCINRHNVYINGITYTPVSSTNEKDMYSFLEDMGLKAFTNSKIRKPKMCPQLEHGPEGEGEGEGIPRYLTAENFFGVSEDLVVQISELEGRGSVEEPHTKLRKYFPETWIWDLVVVNSAGVAEVGVTVPDTITEWKAGAFCLSEDAGLGISSTASLRAFQPFFVELTMPYSVIRGEAFTLKATVLNYLPKCIRVSVQLEASPAFLAVPVEKEQAPHCICANGRQTVSWAVTPKSLGNVNFTVSAEALESQELCGTEVPSVPEHGRKDTVIKPLLVEPEGLEKETTFNSLLCPSGGEVSEELSLKLPPNVVEESARASVSVLGDILGSAMQNTQNLLQMPYGCGEQNMVLFAPNIYVLDYLNETQQLTPEIKSKAIGYLNTGYQRQLNYKHYDGSYSTFGERYGRNQGNTWLTAFVLKTFAQARAYIFIDEAHITQALIWLSQRQKDNGCFRSSGSLLNNAIKGGVEDEVTLSAYITIALLEIPLTVTHPVVRNALFCLESAWKTAQEGDHGSHVYTKALLAYAFALAGNQDKRKEVLKSLNEEAVKKDNSVHWERPQKPKAPVGHFYEPQAPSAEVEMTSYVLLAYLTAQPAPTSEDLTSATNIVKWITKQQNAQGGFSSTQDTVVALHALSKYGAATFTRTGKAAQVTIQSSGTFSSKFQVDNNNRLLLQQVSLPELPGEYSMKVTGEGCVYLQTSLKYNILPEKEEFPFALGVQTLPQTCDEPKAHTSFQISLSVSYTGSRSASNMAIVDVKMVSGFIPLKPTVKMLERSNHVSRTEVSSNHVLIYLDKVSNQTLSLFFTVLQDVPVRDLKPAIVKVYDYYETDEFAIAEYNAPCSKDLGNADYKDDDDKGASHHHHHH

Protease Inhibition (% of WT) [1]: 76 % of WT
Protease Inhibition (% of WT) [2]: 54 % of WT
Protease Inhibition (% of WT) [3]: 290 % of WT
Protease Inhibition (% of WT) [4]: 65 % of WT
Protease Inhibition (% of WT) [5]: 81 % of WT
Protease Inhibition (% of WT) [6]: 91 % of WT
Protease Inhibition (% of WT) [7]: 71 % of WT
Protease Inhibition (% of WT) [8]: 194 % of WT
Protease Inhibition (% of WT) [9]: 189 % of WT
Protease Inhibition (% of WT) [10]: 97 % of WT
Protease Inhibition (% of WT) [11]: 128 % of WT
B2: Variant A2M, bait region SEQ ID NO 13 (other)
chain: SVSGKPQYMVLVPSLLHTETTEKGCVLLSYLNETVTVSASLESVRGNRSLFTDLEAENDVLHCVAFAVPKSSSNEEVMFLTVQVKGPTQEFKKRTTVMVKNEDSLVFVQTDKSIYKPGQTVKFRVVSMDENFHPLNELIPLVYIQDPKGNRIAQWQSFQLEGGLKQFSFPLSSEPFQGSYKVVVQKKSGGRTEHPFTVEEFVLPKFEVQVTVPKIITILEEEMNVSVCGLYTYGKPVPGHVTVSICRKYSDASDCHGEDSQAFCEKFSGQLNSHGCFYQQVKTKVFQLKRKEYEMKLHTEAQIQEEGTVVELTGRQSSEITRTITKLSFVKVDSHFRQGIPFFGQVRLVDGKGVPIPNKVIFIRGNEANYYSNATTDEHGLVQFSINTTNVMGTSLTVRVNYKDRSPCYGYQWVSEEHEEAHHTAYLVFSPSKSFVHLEPMSHELPCGHTQTVQAHYILNGGTLLGLKKLSFYYLIMAKGGIVRTGTHGLLVKQEDMKGHFSISIPVKSDIAPVARLLIYAVLPTGDVIGDSAKYDVENCLANKVDLSFSPSQSLPASHAHLRVTAAPQSVCALRAVDQSVLLMKPDAELSASSVYNLLPEKDLTGFPGPLNDQDDEDCINRHNVYINGITYTPVSSTNEKDMYSFLEDMGLKAFTNSKIRKPKMCPQLEHGPRYLTAEGEGEGIPENFFGVSEDLVVQISELEGRGSVEEPHTKLRKYFPETWIWDLVVVNSAGVAEVGVTVPDTITEWKAGAFCLSEDAGLGISSTASLRAFQPFFVELTMPYSVIRGEAFTLKATVLNYLPKCIRVSVQLEASPAFLAVPVEKEQAPHCICANGRQTVSWAVTPKSLGNVNFTVSAEALESQELCGTEVPSVPEHGRKDTVIKPLLVEPEGLEKETTFNSLLCPSGGEVSEELSLKLPPNVVEESARASVSVLGDILGSAMQNTQNLLQMPYGCGEQNMVLFAPNIYVLDYLNETQQLTPEIKSKAIGYLNTGYQRQLNYKHYDGSYSTFGERYGRNQGNTWLTAFVLKTFAQARAYIFIDEAHITQALIWLSQRQKDNGCFRSSGSLLNNAIKGGVEDEVTLSAYITIALLEIPLTVTHPVVRNALFCLESAWKTAQEGDHGSHVYTKALLAYAFALAGNQDKRKEVLKSLNEEAVKKDNSVHWERPQKPKAPVGHFYEPQAPSAEVEMTSYVLLAYLTAQPAPTSEDLTSATNIVKWITKQQNAQGGFSSTQDTVVALHALSKYGAATFTRTGKAAQVTIQSSGTFSSKFQVDNNNRLLLQQVSLPELPGEYSMKVTGEGCVYLQTSLKYNILPEKEEFPFALGVQTLPQTCDEPKAHTSFQISLSVSYTGSRSASNMAIVDVKMVSGFIPLKPTVKMLERSNHVSRTEVSSNHVLIYLDKVSNQTLSLFFTVLQDVPVRDLKPAIVKVYDYYETDEFAIAEYNAPCSKDLGNADYKDDDDKGASHHHHHH
